What was measured:
4H908-bH = target: T1, 4H908-bH; experiment: two-hybrid library CCNG1;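 note: natural log of median RNA to DNA barcode read ratio; higher means stronger binding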
T1 chain: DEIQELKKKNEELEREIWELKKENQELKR

4H754-bH = target: T2, 4H754-bH; experiment: two-hybrid library CCNG1;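 note: natural log of median RNA to DNA barcode read ratio; higher means stronger binding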
T2 chain: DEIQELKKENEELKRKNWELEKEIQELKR

4H883-bH = target: T3, 4H883-bH; experiment: two-hybrid library CCNG1;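 note: natural log of median RNA to DNA barcode read ratio; higher means stronger binding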
T3 chain: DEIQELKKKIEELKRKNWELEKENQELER

4H967-bH = target: T4, 4H967-bH; experiment: two-hybrid library CCNG1;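 note: natural log of median RNA to DNA barcode read ratio; higher means stronger binding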
T4 chain: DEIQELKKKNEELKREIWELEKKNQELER

4H953-bH = target: T5, 4H953-bH; experiment: two-hybrid library CCNG1;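 note: natural log of median RNA to DNA barcode read ratio; higher means stronger binding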
T5 chain: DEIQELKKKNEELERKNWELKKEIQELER

4H72-bH = target: T6, 4H72-bH; experiment: two-hybrid library CCNG1;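 note: natural log of median RNA to DNA barcode read ratio; higher means stronger binding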
T6 chain: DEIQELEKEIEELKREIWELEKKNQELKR

4H797-bH = target: T7, 4H797-bH; experiment: two-hybrid library CCNG1
T7 chain: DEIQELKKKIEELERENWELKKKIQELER

4H918-bH = target: T8, 4H918-bH; experiment: two-hybrid library CCNG1
T8 chain: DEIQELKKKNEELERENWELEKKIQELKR

4H968-bN = target: T9, 4H968-bN; experiment: two-hybrid library CCNG1
T9 chain: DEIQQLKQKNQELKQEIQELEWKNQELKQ

4H953-bN = target: T10, 4H953-bN; experiment: two-hybrid library CCNG1
T10 chain: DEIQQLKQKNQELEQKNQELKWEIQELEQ

4H967-bN = target: T11, 4H967-bN; experiment: two-hybrid library CCNG1
T11 chain: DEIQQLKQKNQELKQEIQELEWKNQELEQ

4H971-AA = target: T12, 4H971-AA; experiment: two-hybrid library CCmax; conditions: mean of both orientations
T12 chain: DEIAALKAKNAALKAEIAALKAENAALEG

4H3709-AA = target: T13, 4H3709-AA; experiment: two-hybrid library CCmax; conditions: mean of both orientations
T13 chain: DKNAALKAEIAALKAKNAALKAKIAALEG

4H656-AA = target: T14, 4H656-AA; experiment: two-hybrid library CCmax; conditions: mean of both orientations
T14 chain: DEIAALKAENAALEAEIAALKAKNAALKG

4H675-AA = target: T15, 4H675-AA; experiment: two-hybrid library CCmax; conditions: mean of both orientations
T15 chain: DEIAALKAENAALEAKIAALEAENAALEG

4H3939-AA = target: T16, 4H3939-AA; experiment: two-hybrid library CCmax; conditions: mean of both orientations
T16 chain: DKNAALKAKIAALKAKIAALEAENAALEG

4H3666-AA = target: T17, 4H3666-AA; experiment: two-hybrid library CCmax
T17 chain: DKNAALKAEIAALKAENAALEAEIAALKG

4H391-AA = target: T18, 4H391-AA; experiment: two-hybrid library CCmax; conditions: mean of both orientations
T18 chain: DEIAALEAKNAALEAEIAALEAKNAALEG

4H497-AA = target: T19, 4H497-AA; experiment: two-hybrid library CCmax; conditions: mean of both orientations
T19 chain: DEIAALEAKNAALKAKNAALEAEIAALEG

4H478-AA = target: T20, 4H478-AA; experiment: two-hybrid library CCmax; conditions: mean of both orientations
T20 chain: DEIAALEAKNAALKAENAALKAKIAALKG

4H428-AA = target: T21, 4H428-AA; experiment: two-hybrid library CCmax; conditions: mean of both orientations
T21 chain: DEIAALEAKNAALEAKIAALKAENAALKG

4H3920-AA = target: T22, 4H3920-AA; experiment: two-hybrid library CCmax; conditions: mean of both orientations
T22 chain: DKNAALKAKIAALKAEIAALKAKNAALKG

4H_GCN4 = experiment: two-hybrid library CCmax
4H510-AA = target: T23, 4H510-AA; experiment: two-hybrid library CCmax; conditions: mean of both orientations
T23 chain: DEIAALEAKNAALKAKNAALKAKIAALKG

GCN2_T = experiment: two-hybrid library CCmax
4H_BCR = target: T24, 4H_BCR; experiment: two-hybrid library CCmax; conditions: mean of both orientations
T24 chain: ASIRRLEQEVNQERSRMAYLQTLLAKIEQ

4H_APH = target: T25, 4H_APH; experiment: two-hybrid library CCmax
T25 chain: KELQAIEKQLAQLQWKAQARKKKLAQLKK

O14-AA = target: T26, O14-AA; experiment: two-hybrid library CCmax; conditions: mean of both orientations
T26 chain: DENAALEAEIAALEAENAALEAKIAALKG

O13-AA = target: T27, O13-AA; experiment: two-hybrid library CCmax; conditions: mean of both orientations
T27 chain: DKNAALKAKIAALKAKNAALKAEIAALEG

O11-AA = target: T28, O11-AA; experiment: two-hybrid library CCmax; conditions: mean of both orientations
T28 chain: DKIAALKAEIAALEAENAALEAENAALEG

APC9182-AA = target: T29, APC9182-AA; experiment: two-hybrid library CCmax; conditions: mean of both orientations
T29 chain: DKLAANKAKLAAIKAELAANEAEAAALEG

APC9291-AA = target: T30, APC9291-AA; experiment: two-hybrid library CCmax; conditions: mean of both orientations
T30 chain: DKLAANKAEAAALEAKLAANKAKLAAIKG

APC9141-AA = target: T31, APC9141-AA; experiment: two-hybrid library CCmax; conditions: mean of both orientations
T31 chain: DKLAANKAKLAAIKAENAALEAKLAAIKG

APC8516-AA = target: T32, APC8516-AA; experiment: two-hybrid library CCmax
T32 chain: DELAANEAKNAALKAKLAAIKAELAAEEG

APC9806-AA = target: T33, APC9806-AA; experiment: two-hybrid library CCmax; conditions: mean of both orientations
T33 chain: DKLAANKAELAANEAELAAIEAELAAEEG

Sequence of 4H_GCN4 (chain, as listed by the source): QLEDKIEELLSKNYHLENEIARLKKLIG

## DEIQELEKEIEELKREIWELEKKNQELKR [4H72-bH]
4H908-bH
  interaction score: 0.614
4H754-bH
  interaction score: -0.378
4H883-bH
  interaction score: 1.69
4H967-bH
  interaction score: 0.0764
4H953-bH
  interaction score: 0.653
4H72-bH
  interaction score: 0.746
4H797-bH
  interaction score: 0
4H918-bH
  interaction score: 0.163

## DEIQQLKQKNQELEQKNQELKWEIQELEQ [4H953-bN]
4H968-bN
  interaction score: -1.24
4H953-bN
  interaction score: -1.67
4H967-bN
  interaction score: -1.76

## DKNAALKAEIAALKAENAALEAEIAALKG [4H3666-AA]
4H971-AA
  interaction score: 1.3
4H3709-AA
  interaction score: 1.48
4H656-AA
  interaction score: 0.306
4H675-AA
  interaction score: -2.19
4H3939-AA
  interaction score: -1.61
4H3666-AA
  interaction score: 0.925
4H391-AA
  interaction score: -1.26
4H497-AA
  interaction score: -1.84
4H478-AA
  interaction score: 0.407
4H428-AA
  interaction score: -1.27
4H3920-AA
  interaction score: -1.45

## DEIQQLKQKNQELKQEIQELEWKNQELKQ [4H968-bN]
4H968-bN
  interaction score: 0.264

## DEIAALEAKNAALKAEIAALEAENAALEG [4H451-AA]
4H_GCN4
  interaction score: -1.53
4H510-AA
  interaction score: -1.68
GCN2_T
  interaction score: -0.954
4H_BCR
  interaction score: -1.98
4H_APH
  interaction score: -1.88
O14-AA
  interaction score: 0.209
O13-AA
  interaction score: -1.74
O11-AA
  interaction score: -1.9

## DELAANEAKNAALKAKLAAIKAELAAEEG [APC8516-AA]
APC9182-AA
  interaction score: -1.64
APC9291-AA
  interaction score: -1.91
APC9141-AA
  interaction score: -1.56
APC8516-AA
  interaction score: -1.87
APC9806-AA
  interaction score: -1.63
